# According to US20100196392A1 (Kyowa Kirin, published 2010):
# T1: human ASCT2 (system ASC amino acid transporter 2), endogenous on human cancer cell lines KMS-11, OPM-2, WiDr … (human, UniProt Q15758 1-541)
# T1 construct: also called SLC1A5
# T1 sequence: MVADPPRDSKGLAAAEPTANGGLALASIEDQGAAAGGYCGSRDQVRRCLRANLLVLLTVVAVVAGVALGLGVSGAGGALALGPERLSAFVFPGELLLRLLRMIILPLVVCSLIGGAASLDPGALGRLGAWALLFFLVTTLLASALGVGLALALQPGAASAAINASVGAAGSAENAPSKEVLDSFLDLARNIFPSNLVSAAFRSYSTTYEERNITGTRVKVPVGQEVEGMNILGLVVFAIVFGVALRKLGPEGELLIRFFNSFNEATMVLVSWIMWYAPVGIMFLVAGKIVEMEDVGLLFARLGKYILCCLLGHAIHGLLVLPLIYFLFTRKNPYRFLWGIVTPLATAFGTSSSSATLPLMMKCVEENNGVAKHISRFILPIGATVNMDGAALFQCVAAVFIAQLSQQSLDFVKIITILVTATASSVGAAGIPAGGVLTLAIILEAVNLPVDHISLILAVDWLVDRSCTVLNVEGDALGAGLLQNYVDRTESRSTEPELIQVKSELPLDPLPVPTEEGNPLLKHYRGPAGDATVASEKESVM
# T2: human ASCT2-myc/His (fusion protein in which myc/His was added to the C-terminal of human ASCT2), expressed … (human, UniProt Q15758 1-541)
# T2 construct: Also used as cell lysate in Western blotting and immunoprecipitation; also called ASCT2/CHO; human ASCT2-myc/His gene-introduced CHO cells
# T2 sequence: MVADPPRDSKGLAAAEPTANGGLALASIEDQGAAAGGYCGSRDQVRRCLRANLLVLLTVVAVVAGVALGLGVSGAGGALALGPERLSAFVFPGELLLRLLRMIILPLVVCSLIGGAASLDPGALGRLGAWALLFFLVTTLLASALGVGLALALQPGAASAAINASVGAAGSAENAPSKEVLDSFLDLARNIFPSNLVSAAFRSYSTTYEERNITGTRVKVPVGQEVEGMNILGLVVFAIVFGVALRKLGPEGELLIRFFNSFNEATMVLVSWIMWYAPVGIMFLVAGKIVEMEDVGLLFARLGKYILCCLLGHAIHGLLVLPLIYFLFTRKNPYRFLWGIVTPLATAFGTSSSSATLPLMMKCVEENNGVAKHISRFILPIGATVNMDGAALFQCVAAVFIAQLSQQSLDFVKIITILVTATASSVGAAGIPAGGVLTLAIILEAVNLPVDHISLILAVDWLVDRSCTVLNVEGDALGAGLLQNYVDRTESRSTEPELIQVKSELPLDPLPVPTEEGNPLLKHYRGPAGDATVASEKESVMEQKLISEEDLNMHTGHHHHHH
# T3: mouse ASCT2-myc/His, expressed on CHO cells (mouse, UniProt P51912 1-553)
# T3 construct: also called mouse ASCT2/CHO
# T3 sequence: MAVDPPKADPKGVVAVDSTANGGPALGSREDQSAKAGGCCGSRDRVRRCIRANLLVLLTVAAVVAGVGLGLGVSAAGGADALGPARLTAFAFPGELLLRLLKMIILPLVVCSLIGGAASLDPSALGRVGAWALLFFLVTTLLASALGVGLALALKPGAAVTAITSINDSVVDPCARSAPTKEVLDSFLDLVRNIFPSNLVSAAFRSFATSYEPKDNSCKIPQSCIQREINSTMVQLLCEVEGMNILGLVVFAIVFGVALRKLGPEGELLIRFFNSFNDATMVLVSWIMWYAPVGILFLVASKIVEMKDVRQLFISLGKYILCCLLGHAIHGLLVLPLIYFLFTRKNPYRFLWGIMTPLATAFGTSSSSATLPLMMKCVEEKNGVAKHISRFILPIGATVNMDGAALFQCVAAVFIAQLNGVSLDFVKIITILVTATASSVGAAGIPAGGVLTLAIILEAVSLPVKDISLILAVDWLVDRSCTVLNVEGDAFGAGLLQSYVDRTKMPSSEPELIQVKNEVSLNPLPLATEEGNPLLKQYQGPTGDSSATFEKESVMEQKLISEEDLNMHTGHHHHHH
# Key:
# [1] = molecular target: T1, human ASCT2 (system ASC amino acid …); assay: flow cytometry on KMS-11 cells
# Procedure: (§1) The human ASCT2-myc/His gene-introduced CHO cell obtained in Example 2, the vector-introduced CHO cell and the multiple myeloma cell line KMS-11 (HSRRB No. JCRB1179) were respectively cultured in a 5% CO₂ incubator for 3 to 4 days at 37° C. The human ASCT2-myc/His gene-introduced CHO cells and the vector-introduced CHO cells were peeled off with a 0.02% EDTA solution (manufactured by Nacalai Tesque) and washed with a mixed solution of PBS, 0.02% EDTA and 0.05% sodium azide. Additionally, in order to avoid the non-specific adsorption of antibodies, the cells were blocked for 30 minutes at ice temperature using 1% BSA-PBS for the human ASCT2-myc/His gene-introduced CHO cells and the vector-introduced CHO cells, and using 100 μg/mL of human IgG (manufactured by Sigma) for KMS-11. The cells were seeded into a 96-well U-bottom plate so as to give a density of 1×10⁵ to 5×10⁵ cells/100 μL/well and centrifuged at 1,500 rpm for 5 minutes (05PR-22, manufactured by Hitachi Koki) and then the supernatant was removed. The test substances as the primary antibody, i.e., the purified antibodies and rat IgG2a-UNLB (negative control, manufactured by Beckman Coulter) or KM511 {negative control, anti-G-CSF derivative antibody, [Agric. Biol. Chem., 53, 1095 (1989)], mouse IgG1} were diluted to give a final concentration of 10 μg/mL in a mixed solution (hereinafter, referred to as “Dilution Solution A”) of 1% BSA-PBS, 0.02% EDTA and 0.05% sodium azide and the resulting solution was added at the volume of 100 μL/well, followed by reaction for 60 minutes at ice temperature. […] Washing with Dilution Solution A was carried out three times again, the cells were suspended in PBS and the fluorescence intensity was measured by a flow cytometer (Cytomics FC500 MPL, manufactured by Beckman Coulter).
# [2] = molecular target: T2, human ASCT2-myc/His (fusion protein in …); assay: flow cytometry on human ASCT2-myc/His CHO cells
# Procedure: as §1
# [3] = molecular target: T3, mouse ASCT2-myc/His, expressed on CHO …; assay: flow cytometry on mouse ASCT2/CHO cells
# [4] = molecular target: T1, human ASCT2 (system ASC amino acid …); assay: flow cytometry on OPM-2 cells, 0.01 to 10 ug/mL
# Procedure: (§2) Each of the human ASCT2-myc/His gene-introduced CHO cell obtained in Example 2, and the multiple myeloma cell line OPM-2 (DSMZ Accession No. ACC50) was cultured in a 5% CO₂ incubator for 3 to 4 days at 37° C. The human ASCT2-myc/His gene-introduced CHO cells were peeled off with a 0.02% EDTA solution (manufactured by Nacalai Tesque), and in order to avoid the non-specific adsorption of antibodies, the cells were blocked for 30 minutes at ice temperature using 1% BSA-PBS. The cells were seeded into a 96-well U-bottom plate so as to give a density of 1×10⁵ to 5×10⁵ cells/100 μL/well. The plates were centrifugation at 1,500 rpm for 5 minutes (05PR-22, manufactured by Hitachi Koki), and then the supernatant was removed. As the primary antibody, the purified antibody which was a test substance was diluted to give a final concentration of 0.01 μg/mL to 10 μg/mL in 1% BSA-PBS, and dispensed to the plate at 100 μL/well, followed by reaction at ice temperature for 60 minutes. After washing the cells with 1% BSA-PBS, FITC-labeled anti-human immunoglobulin G (H+L) (manufactured by Jackson Laboratories) diluted with 1% BSA-PBS was added as the secondary antibody, followed by reaction at ice temperature for 30 minutes under shading. The cells were washed with 1% BSA-PBS and then suspended in PBS. The fluorescence intensity of the cells was measured by a flow cytometer (Cytomics FC500 MPL, manufactured by Beckman Coulter).
# [5] = molecular target: T2, human ASCT2-myc/His (fusion protein in …); assay: flow cytometry on human ASCT2-myc/His CHO cells, 0.01 to 10 ug/mL
# Procedure: as §2
Binder,binding result [1],binding result [2],binding result [3],binding result [4],binding result [5]
"anti-ASCT2 monoclonal antibody KM4018 (antibody, V domains shown, Hybridoma antibody) VH: EVQLVESGGGLVQSGRSIRLSCAASGFSFSNYYMAWVRQAPSKGLEWVASITKGGGNTYYRDSVKGRFTFSRDNAKSTLYLQMDSLRSEDTATYYCARQVTIAAVSTSYFDSWGQGVMVTVSS VL: DIVLTQSPALAVSLGQRATISCKTNQKVDYYGNSYVYWYQQKPGQQPKLLIYLASNLASGIPARFSGRGSGTDFTLTIDPVEADDTATYYCQQSRNLPYTFGAGTKLELKR",binds,binds,no binding,–,–
"anti-ASCT2 human chimeric antibody cKM4018 (antibody, V domains shown, VH and VL of KM4018 were inserted into vector pKANTEX93, which carries human CH and CL; The SDS-PAGE pattern was consistent with the IgG class) VH: EVQLVESGGGLVQSGRSIRLSCAASGFSFSNYYMAWVRQAPSKGLEWVASITKGGGNTYYRDSVKGRFTFSRDNAKSTLYLQMDSLRSEDTATYYCARQVTIAAVSTSYFDSWGQGVMVTVSS VL: DIVLTQSPALAVSLGQRATISCKTNQKVDYYGNSYVYWYQQKPGQQPKLLIYLASNLASGIPARFSGRGSGTDFTLTIDPVEADDTATYYCQQSRNLPYTFGAGTKLELKR",–,–,–,binds,binds
"anti-ASCT2 monoclonal antibody KM4008 (hybridoma KM4008, FERM BP-10962) (antibody, V domains shown, Mouse monoclonal antibody) VH: QIQLVQSGPELKKPGETVKISCKASGYTFTTFGMSWVKQVPGKGLKWMGWIHTYAGVPIYGDDFKGRFAFSLETSASTAYLQINNVKNEDTATYFCARRSDNYRYFFDYWGQGTTLTVSS VL: DIQMTQTTSSLSASLGDRVTISCRASQDIRNYLNWYQRKPHGTVKLLIYYTSRLHSGVPSRFSGSGSGTDYSLTISNLEQEDIATYFCQQGHTLPPTFGGGTKLEIKR",binds,binds,–,–,–
"anti-ASCT2 human chimeric antibody cKM4008 (antibody, V domains shown, VH and VL of KM4008 were inserted into vector pKANTEX93, which carries human CH and CL; The SDS-PAGE pattern was consistent with the IgG class) VH: QIQLVQSGPELKKPGETVKISCKASGYTFTTFGMSWVKQVPGKGLKWMGWIHTYAGVPIYGDDFKGRFAFSLETSASTAYLQINNVKNEDTATYFCARRSDNYRYFFDYWGQGTTLTVSS VL: DIQMTQTTSSLSASLGDRVTISCRASQDIRNYLNWYQRKPHGTVKLLIYYTSRLHSGVPSRFSGSGSGTDYSLTISNLEQEDIATYFCQQGHTLPPTFGGGTKLEIKR",–,–,–,binds,binds
"anti-ASCT2 monoclonal antibody KM4012 (hybridoma KM4012, FERM BP-10963) (antibody, V domains shown, Hybridoma antibody) VH: QIQLVQSGPELKKPGETVKISCKASGYTFTTYGMSWVKQTPGKGLKWMGWIHTYSGVPIYGDDSKGRFAFSLETSGSIAYLQINNVKNEDTATYFCARRSDGYRYFFDYWGQGTTLTVSS VL: DIQMTQITSSLSASLGDRVTISCRASQDIRNYLNWYQQKPDGTVKLLIYYTSRLHSGVPSRFSGSGSGTDYSLTISNLEQEDIATYFCQQGNTLPPTFGGGTKLEIKR",binds,binds,–,–,–
"anti-ASCT2 human chimeric antibody cKM4012 (antibody, V domains shown, VH and VL of KM4012 were inserted into vector pKANTEX93, which carries human CH and CL; The SDS-PAGE pattern was consistent with the IgG class) VH: QIQLVQSGPELKKPGETVKISCKASGYTFTTYGMSWVKQTPGKGLKWMGWIHTYSGVPIYGDDSKGRFAFSLETSGSIAYLQINNVKNEDTATYFCARRSDGYRYFFDYWGQGTTLTVSS VL: DIQMTQITSSLSASLGDRVTISCRASQDIRNYLNWYQQKPDGTVKLLIYYTSRLHSGVPSRFSGSGSGTDYSLTISNLEQEDIATYFCQQGNTLPPTFGGGTKLEIKR",–,–,–,binds,binds
